From patent publication US20100298217A1 (published 2010)

Key:
[1] = target: T1, mouse CSF-1R C432S/C439S mutant expressed on M-/- macrophages (M-/-.C432/439SCSF-1R cells) (mouse, UniProt P09581 20-977); experiment: cell-based or functional assay
T1 sequence: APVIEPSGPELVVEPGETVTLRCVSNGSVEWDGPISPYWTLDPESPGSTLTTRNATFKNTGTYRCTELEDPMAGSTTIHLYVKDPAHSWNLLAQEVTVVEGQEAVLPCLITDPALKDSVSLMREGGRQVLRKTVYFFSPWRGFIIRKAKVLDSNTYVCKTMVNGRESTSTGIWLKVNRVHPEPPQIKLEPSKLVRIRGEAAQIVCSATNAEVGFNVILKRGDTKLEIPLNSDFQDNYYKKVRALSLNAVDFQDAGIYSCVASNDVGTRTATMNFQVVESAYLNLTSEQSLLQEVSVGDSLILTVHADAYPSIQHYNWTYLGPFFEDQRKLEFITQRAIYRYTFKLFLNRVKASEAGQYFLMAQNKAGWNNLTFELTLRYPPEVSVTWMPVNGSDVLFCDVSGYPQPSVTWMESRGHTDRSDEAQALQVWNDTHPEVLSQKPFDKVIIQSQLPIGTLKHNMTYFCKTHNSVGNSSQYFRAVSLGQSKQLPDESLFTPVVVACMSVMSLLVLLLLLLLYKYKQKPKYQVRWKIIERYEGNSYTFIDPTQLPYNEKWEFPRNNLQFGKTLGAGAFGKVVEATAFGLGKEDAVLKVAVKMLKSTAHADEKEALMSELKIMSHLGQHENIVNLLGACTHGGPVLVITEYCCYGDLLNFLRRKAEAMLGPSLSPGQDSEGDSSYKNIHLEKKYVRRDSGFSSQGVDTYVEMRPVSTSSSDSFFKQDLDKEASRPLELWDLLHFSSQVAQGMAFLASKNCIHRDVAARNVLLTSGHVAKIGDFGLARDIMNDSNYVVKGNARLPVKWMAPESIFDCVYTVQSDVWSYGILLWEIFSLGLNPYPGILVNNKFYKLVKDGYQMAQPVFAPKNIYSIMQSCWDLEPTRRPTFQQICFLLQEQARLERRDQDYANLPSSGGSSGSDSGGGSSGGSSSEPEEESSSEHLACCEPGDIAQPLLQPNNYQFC

[2] = target: T1, mouse CSF-1R C432S/C439S mutant …; experiment: CSF-1 binding to upregulated cells carrying the receptor, FIG. 14

B1: purified human recombinant CSF-1 (ligand, UniProt P09603 36-253, looked up)
chain: SEYCSHMIGSGHLQSLQRLIDSQMETSCQITFEFVDQEQLKDPVCYLKKAFLLVQDIMEDTMRFRDNTPNAIAIVQLQELSLRLKSCFTKDYEEHDKACVRTFYETPLQLLEKVKNVFNETKNLLDKDWNIFSKNCNNSFAECSSQDVVTKPDCNCLYPKAIPSSDPASVSPHQPLAPSMAPVAGLTWEDSEGTEGSSLLPGEQPLHTVDPGSAKQRP
notes: also called human CSF-1; colony stimulating factor-1
In the case of B1, the “fold decrease in CSF-1-induced tyrosine phosphorylation and ubiquitination of cells starved of CSF-1 for 24 h” value [1] is reported as about 5 fold and the “maximum CSF-1 binding relative to WT CSF-1R” value [2] is reported as about 70%.
